Reference: publication PMC8967867 (2022)

Experiments:
[1] = target: T1, CID1R^ML, maximum likelihood reconstructed CBP-interacting domain (CID) of the NCOA family from an early …; test: ITC
T1 chain: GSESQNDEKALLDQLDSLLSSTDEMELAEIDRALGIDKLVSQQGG

[2] = target: CID1R^AltAll, alternative reconstructed CID of the early vertebrate ancestor (1R) with the second most likely …; test: ITC

Binder | Kd [1] [µM] | Kd [2] [nM]
IMPPALQQLLQTLKSPNSPQQQQQVLHILKSNPQLMAAFIKQRSQQQQ (domain or fragment) | 9.7 | 
GSTPPQALQQLLQTLKSPSSPQQQQQVLQILKSNPQLMAAFIKQRSQHQQ (domain or fragment) |  | 2200
